In assay [1] the target is T1, Syndecan-3 ectodomain purified from early postnatal rat brain (rat, UniProt P33671 45-387, carries natural heparan sulfate (HS) side chains; attachment residues not stated).
T1 construct: extracellular domain; Native proteoglycan; also called S3; extracellular domain of syndecan-3
The assay can be described thus: SPR (IAsys), GFL immobilised on aminosilane cuvette, syndecan-3 ectodomain in solution. Here is the method: (§1) The affinities of GFLs for heparin and heparin-like molecules (e.g. syndecan-3) were determined by plasmon surface resonance using the IAsys system (Affinity Sensors, Cambridge, UK). Planar aminosilane cuvettes (Affinity Sensors) were used for protein coupling to avoid problems with mass transport, which occur frequently with matrix surfaces. In the initial approach, heparin-BSA was immobilized to the cuvette surface using the manufacturer's instructions and different ligand concentrations were used to determine association (kₐ) and dissociation (kdis) rates using the IAsys Fastfit software. The dissociation constant Kd was determined from the binding dynamics as […], or from equilibrium response (R) using a simple Langmuir fit: R=(Rₘₐₓ*C)/(Kd+C), where C is the ligand concentration. […] The dissociation constants were determined from binding dynamics and equilibrium response. The same cuvettes were used to test binding of heparan sulfate proteoglycan syndecan-3, which was purified as an ectodomain from early postnatal rat brains by HB-GAM affinity chromatography (Raulo et al., 1994).
(§2) Binding was analyzed using IAsys cuvettes with immobilized heparin-BSA or GFLs. The dissociation constant Kd was determined from dynamics of association and dissociation (Kd=kdis/kₐ), or from equilibrium response R (R=(Rₘₐₓ*C)/(Kd+C), where C is ligand concentration).

For assay [2], the target named is T1, Syndecan-3 ectodomain purified from …. Kind of assay: SPR (IAsys), GFL immobilised, syndecan-3 ectodomain in solution; Kd = kdis/ka. As to the method:
as §1, §2

For assay [3] the target is unchanged. Kind of assay: SPR (IAsys), GFL immobilised, syndecan-3 ectodomain in solution; equilibrium response. Here is the method:
as §1, §2

Assay [4] has the same target. Kind of assay: SPR (IAsys), GFL immobilised, syndecan-3 ectodomain in solution; equilibrium response; equilibrium response only; syndecan-3 concentrations limiting, dynamics could not be fit.
The target is the same in assay [5]. Kind of assay: SPR (IAsys optical biosensor): ARTN immobilized on the aminosilane cuvette, syndecan-3 ectodomain (S3) in solution at 0 to about 95 nM. Kd from the equilibrium response (insert of the ARTN panel). As to the method: as §1

T1 sequence (P33671 45-387): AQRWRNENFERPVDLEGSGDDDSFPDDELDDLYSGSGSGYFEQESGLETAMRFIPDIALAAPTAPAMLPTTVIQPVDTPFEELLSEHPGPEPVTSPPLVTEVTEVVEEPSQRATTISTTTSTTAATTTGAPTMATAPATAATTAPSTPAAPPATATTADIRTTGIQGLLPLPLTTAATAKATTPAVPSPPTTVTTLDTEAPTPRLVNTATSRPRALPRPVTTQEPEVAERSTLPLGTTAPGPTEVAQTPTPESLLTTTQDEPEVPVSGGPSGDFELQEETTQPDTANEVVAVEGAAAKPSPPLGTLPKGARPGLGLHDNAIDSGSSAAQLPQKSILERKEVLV

B1: Neurturin (NRTN) (ligand, UniProt Q99748 96-197, looked up)
chain: ARLGARPCGLRELEVRVSELGLGYASDETVLFRYCAGACEAAARVYDLGLRRLRQRRRLRRERVRAQPCCRPTAYEDEVSFLDAHSRYHTVHELSARECACV
B1 registered a koff in assay [1] of 0.021 s⁻¹. Besides, the kon in assay [1] worked out at 750000 M⁻¹ s⁻¹. For the same molecule, the Kd in assay [2] stood at 26.3 nM; in assay [3] it was 28.5 nM.

B2: Persephin (PSPN) (ligand, UniProt O60542 61-156, looked up)
chain: ALSGPCQLWSLTLSVAELGLGYASEEKVIFRYCAGSCPRGARTQHGLALARLQGQGRAHGGPCCRPTRYTDVAFLDDRHRWQRLPQLSAAACGCGG
B2: the Kd in assay [4] was > 70 nM.

B3: Artemin (ARTN) (ligand, UniProt Q5T4W7 108-220, looked up)
chain: AGGPGSRARAAGARGCRLRSQLVPVRALGLGHRSDELVRFRFCSGSCRRARSPHDLSLASLLGAGALRPPPGSRPVSQPCCRPTRYEAVSFMDVNSTWRTVDRLSATACGCLG
For B3, the koff in assay [1] is 0.034 s⁻¹. Besides, the kon in assay [1] came to 630000 M⁻¹ s⁻¹. For the same molecule, the Kd is 53.9 nM in assay [2], 21.2 nM in assay [3] and 21.1 nM in assay [5].

B4: Glial cell line-derived neurotrophic factor (GDNF) (ligand, UniProt P39905 78-211, looked up)
chain: SPDKQMAVLPRRERNRQAAAANPENSRGKGRRGQRGKNRGCVLTAIHLNVTDLGLGYETKEELIFRYCSGSCDAAETTYDKILKNLSRNRRLVSDKVGQACCRPIAFDDDLSFLDDNLVYHILRKHSAKRCGCI
notes: Immobilised on an aminosilane cuvette for SPR, or coated on plastic, glass or filters for the cell assays; also called wtGDNF; unlabeled (Cold) GDNF
Take B4: in assay [1], the koff stood at 0.015 s⁻¹ and the association rate constant (kon) amounted to 1.3e+06 M⁻¹ s⁻¹. For the same molecule, the Kd in assay [2] came out at 11.5 nM. Moreover, the affinity in assay [3], expressed as Kd, was 12 nM.

Usually koff stands for the first-order rate constant of dissociation. Lower therefore signals slow dissociation. A word on the kon: it is the second-order rate constant of association. Low values mean slow association, high ones fast association. For orientation: Kd means the constant that tells how readily two partners part at equilibrium.

The values above are taken from patent publication US20080057516A1 (published 2008).
